{"source": "patent US20240317834A1", "about": "“COMPOSITIONS AND METHODS FOR NEUROLOGICAL DISEASES” (CODA BIOTHERAPEUTICS, INC., priority 2020, published 2024)", "molecules": {"B1": {"name": "CODA536: engineered chimeric LGIC receptor, L131D, S172D in SEQ ID NO: 33 (protein)", "chain": "MRCSPGGVWLALAASLLHVSLQGEFQRKLYKELVKNYNPLERPVANDSQPLTVYFSLSLLQIMDVDEKNQVLTTNIWLQMSWTDHYLQWNVSEYPGVKTVRFPDGQIWKPDILLYNSADERFDATFHTNVDVNSSGHCQYLPPGIFKSSCPMDLKNFPMDVQTCKLKFGSWDYGGWSLDLQMQEADISGYIPNGEWDLVGIPGKRSERFYECCKEPYPDVTFTVTMRRRMGYYLIQMYIPSLLIVILSWISFWINMDAAPARVGLGITTVLTMTTQSSGSRASLPKVSYVKAIDIWMAVCLLFVFSALLEYAAVNFVSRQHKELLRFRRKRRHHKSPMLNLFQEDEAGEGRFNFSAYGMGPACLQAKDGISVKGANNSNTTNPPPAPSKSPEEMRKLFIQRAKKIDKISRIGFPMAFLIFNMFYWIIYKIVRREDVHNQ", "modifications": "synthetic sequence of chimeric LGIC"}}, "key": {"Lenti-X 293T cells": {"test_system": "Lenti-X 293T cells", "assay": "YFP fluorescence quenching anion reporter plate reader assay of engineered receptors stimulated with acetylcholine or a non-native ligand", "assay_type": "cell-based", "how_it_was_run": "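YFP quench was followed for about 1 min 43 s after ligand delivered in iodide-based ECS, pH 7.2. Values are end-of-read fluorescence (last 10 s) divided by the pre-ligand baseline (15 s). Cells were LX293T, transfected with receptor DNA a day before the assay.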"}, "HEK293T cells": {"test_system": "HEK293T cells", "assay": "High throughput electrophysiology (IonFlux automated patch clamp), EC50 of engineered receptors to ligands", "assay_type": "cell-based", "protocol": "To confirm the EC50s determined by plate reader as well as develop a better understanding of maximum current flow, the engineered receptors were subjected to high throughput electrophysiology system, as described below. For HEK293T studies, cDNAs encoding ion channels were cloned into pcDNA3.1 using standard recombination techniques. HEK293T cells from Clontech (Lenti-X™ 293T Cell Line) were cultured in DMEM supplemented with 10% FBS and 1% Pen/Strep to 40-50% confluence using standard cell culture protocols, transfected with ion channel plasmids at a concentration of 18 μg per 15 cm dish using Fugene 6, and grown for an additional 24 hours. Cells were then assayed on an electrophysiological system (IonFluxHT and/or Mercury, Fluxion Biosciences) in which dose-response relationships may be assessed through a microfluidics-based platform for establishing whole cell configurations. Ensemble plates were primed with extracellular buffer (140 mM NaCl, 5 mM KCl, 2 mM CaCl2), 1 mM MgCl2, 10 mM HEPES, and 10 mM glucose, pH 7.2 with NaOH, mOsm 310), intracellular buffer (145 mM CsCl, 2 mM CaCl2), 2 mM MgCl2, 10 mM HEPES, and 10 mM EGTA, pH 7.2 with CsOH, mOsm 305), as adapted from Lynagh and Lynch, and test compounds (stocks prepared fresh) diluted in extracellular buffer. Cells were then released from the plate with Accutase, centrifuged, resuspended in extracellular buffer, and loaded into Ensemble plates. Cells were then subjected to a standard protocol for priming, trapping, breaking, and establishing whole cell configuration, with cells held at −60 mV throughout the recording. After recording baseline, progressive doses of test compounds were applied using the IonFlux software to assess dose response relationships. Data were then analyzed off-line using custom Python scripts to convert data to .csv format, re-plot traces, and apply QC measurements to reject unstable recordings (i.e. thresholding based on access resistance and/or standard deviation in baseline, as well as artifact rejection). Peak currents were then calculated, and population data were fit using a 4-parameter logistic equation as described by the Hill Equation. Currents were measured on an automated patch clamp system (Fluxion Biosciences) following 1 second addition of drug and the EC50 values calculated are tabulated below in Table 22 below and Table 21 above (in Example 2)."}}, "data": [{"molecule": "B1", "values": [{"measurement": "YFP fluorescence quenching using TC-5619/Bradanicline", "setting": "Lenti-X 293T cells; 1 nM brd", "result": "−1.24", "unit": "%"}, {"measurement": "YFP fluorescence quenching using TC-5619/Bradanicline", "setting": "Lenti-X 293T cells; 3 nM brd", "result": 0.25, "unit": "%"}, {"measurement": "YFP fluorescence quenching using TC-5619/Bradanicline", "setting": "Lenti-X 293T cells; 10 nM brd", "result": "−2.57", "unit": "%"}, {"measurement": "YFP fluorescence quenching using TC-5619/Bradanicline", "setting": "Lenti-X 293T cells; 30 nM brd", "result": 0.78, "unit": "%"}, {"measurement": "YFP fluorescence quenching using Facinicline", "setting": "Lenti-X 293T cells; 30 nM fac", "result": 24.15}, {"measurement": "YFP fluorescence quenching using ABT-126", "setting": "Lenti-X 293T cells; 50 nM abt", "result": "−3.19", "unit": "%"}, {"measurement": "YFP fluorescence quenching using CNL002", "setting": "Lenti-X 293T cells; 100 nM CNL002", "result": 71.72, "unit": "%"}, {"measurement": "YFP fluorescence quenching using ABT-126", "setting": "Lenti-X 293T cells; 100 nM abt", "result": 7.58, "unit": "%"}, {"measurement": "YFP fluorescence quenching using AZD-0328", "setting": "Lenti-X 293T cells; 100 nM azd0328", "result": 51.44, "unit": "%"}, {"measurement": "YFP fluorescence quenching using TC-5619/Bradanicline", "setting": "Lenti-X 293T cells; 100 nM brd", "result": 4.51, "unit": "%"}, {"measurement": "YFP fluorescence quenching using ABT-126", "setting": "Lenti-X 293T cells; 300 nM abt", "result": "−1.65", "unit": "%"}, {"measurement": "YFP fluorescence quenching using AZD-0328", "setting": "Lenti-X 293T cells; 300 nM azd0328", "result": 77.12, "unit": "%"}, {"measurement": "YFP fluorescence quenching using TC-5619/Bradanicline", "setting": "Lenti-X 293T cells; 300 nM brd", "result": 30.97, "unit": "%"}, {"measurement": "YFP fluorescence quenching using Facinicline", "setting": "Lenti-X 293T cells; 300 nM fac", "result": 80.17}, {"measurement": "YFP fluorescence quenching using CNL002", "setting": "Lenti-X 293T cells; 1 uM CNL002", "result": 77.26, "unit": "%"}, {"measurement": "YFP fluorescence quenching using ABT-126", "setting": "Lenti-X 293T cells; 1 uM abt", "result": 31.29, "unit": "%"}, {"measurement": "YFP fluorescence quenching using TC-5619/Bradanicline", "setting": "Lenti-X 293T cells; 1 uM brd", "result": 44.41, "unit": "%"}, {"measurement": "YFP fluorescence quenching using TC-6987", "setting": "Lenti-X 293T cells; 1 uM tc6987", "result": "−18.24"}, {"measurement": "YFP fluorescence quenching using Facinicline", "setting": "Lenti-X 293T cells; 10 uM fac", "result": 81.34}, {"measurement": "YFP fluorescence quenching using TC-6987", "setting": "Lenti-X 293T cells; 10 uM tc6987", "result": "−23.06"}, {"measurement": "YFP fluorescence quenching using CNL002", "setting": "Lenti-X 293T cells; 30 uM CNL002", "result": 77.5, "unit": "%"}, {"measurement": "YFP fluorescence quenching using AZD-0328", "setting": "Lenti-X 293T cells; 30 uM azd0328", "result": 79.26, "unit": "%"}, {"measurement": "YFP fluorescence quenching using Facinicline", "setting": "Lenti-X 293T cells; 30 uM fac", "result": 79.9}, {"measurement": "YFP fluorescence quenching using TC-6987", "setting": "Lenti-X 293T cells; 500 uM tc6987", "result": "−19.3"}, {"measurement": "percent quench of YFP fluorescence, 30 nM TC-6683", "setting": "Lenti-X 293T cells; TC-6683 30 nM", "result": "−22.285", "unit": "%"}, {"measurement": "percent quench of YFP fluorescence, 300 nM TC-6683", "setting": "Lenti-X 293T cells; TC-6683 300 nM", "result": "−23.926", "unit": "%"}, {"measurement": "percent quench of YFP fluorescence, 3 uM TC-6683", "setting": "Lenti-X 293T cells; TC-6683 3 uM", "result": "−20.514", "unit": "%"}, {"measurement": "percent quench of YFP fluorescence, 30 uM TC-6683", "setting": "Lenti-X 293T cells; TC-6683 30 uM", "result": "−3.078", "unit": "%"}, {"measurement": "percent quench of YFP fluorescence, 100 uM TC-6683", "setting": "Lenti-X 293T cells; TC-6683 100 uM", "result": 7.37, "unit": "%"}, {"measurement": "percent quench of YFP fluorescence, 10 uM ach", "setting": "Lenti-X 293T cells; acetylcholine 10 uM", "result": "−12.91", "unit": "%"}, {"measurement": "percent quench of YFP fluorescence, 100 uM ach", "setting": "Lenti-X 293T cells; acetylcholine 100 uM", "result": "−20.88", "unit": "%"}, {"measurement": "percent quench of YFP fluorescence, 1 mM ach", "setting": "Lenti-X 293T cells; acetylcholine 1 mM", "result": 79.85, "unit": "%"}, {"measurement": "percent quench of YFP fluorescence, 3 mM ach", "setting": "Lenti-X 293T cells; acetylcholine 3 mM", "result": 79.98, "unit": "%"}, {"measurement": "fold increased potency towards AZD-0328 compared with wild type receptor", "setting": "HEK293T cells; ligand AZD-0328", "result": "at least 10 fold"}, {"measurement": "fold increased potency towards RG-3487 compared with wild type receptor", "setting": "HEK293T cells; ligand RG-3487", "result": "at least 10 fold"}]}]}
